Measurements from patent US20220363775A1 (Memorial Sloan Kettering, published 2022).
Positions count from the first letter of the chain named.

T1: human Adhesion G protein-coupled receptor E2 (ADGRE2) (human, UniProt Q9UHX3 24-823)
T1 construct: No signal peptide limits are stated; also called EMR2; CD312
T1 sequence: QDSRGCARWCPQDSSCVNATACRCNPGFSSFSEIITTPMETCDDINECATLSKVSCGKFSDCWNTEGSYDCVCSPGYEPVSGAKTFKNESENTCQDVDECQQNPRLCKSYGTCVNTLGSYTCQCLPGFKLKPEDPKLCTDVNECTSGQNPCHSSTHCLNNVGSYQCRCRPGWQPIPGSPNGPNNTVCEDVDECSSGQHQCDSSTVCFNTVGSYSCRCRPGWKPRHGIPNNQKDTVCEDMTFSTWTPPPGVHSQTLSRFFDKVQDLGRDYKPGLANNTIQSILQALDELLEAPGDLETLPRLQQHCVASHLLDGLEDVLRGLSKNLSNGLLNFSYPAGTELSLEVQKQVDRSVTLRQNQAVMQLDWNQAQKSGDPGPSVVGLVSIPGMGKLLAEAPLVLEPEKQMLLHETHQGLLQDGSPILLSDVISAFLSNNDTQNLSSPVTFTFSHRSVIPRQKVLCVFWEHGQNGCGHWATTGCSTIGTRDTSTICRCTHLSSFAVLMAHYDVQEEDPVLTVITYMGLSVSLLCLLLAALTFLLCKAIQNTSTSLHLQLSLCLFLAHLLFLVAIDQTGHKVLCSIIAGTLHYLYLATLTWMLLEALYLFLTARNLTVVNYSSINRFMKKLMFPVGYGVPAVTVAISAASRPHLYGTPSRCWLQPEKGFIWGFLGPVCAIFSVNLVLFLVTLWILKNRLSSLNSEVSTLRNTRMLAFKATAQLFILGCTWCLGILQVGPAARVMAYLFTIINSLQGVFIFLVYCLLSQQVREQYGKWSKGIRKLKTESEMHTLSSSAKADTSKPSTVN

T2: ADGRE3 (human, UniProt Q9BY15 22-652)
T2 construct: whole, on cells
T2 sequence (looked up): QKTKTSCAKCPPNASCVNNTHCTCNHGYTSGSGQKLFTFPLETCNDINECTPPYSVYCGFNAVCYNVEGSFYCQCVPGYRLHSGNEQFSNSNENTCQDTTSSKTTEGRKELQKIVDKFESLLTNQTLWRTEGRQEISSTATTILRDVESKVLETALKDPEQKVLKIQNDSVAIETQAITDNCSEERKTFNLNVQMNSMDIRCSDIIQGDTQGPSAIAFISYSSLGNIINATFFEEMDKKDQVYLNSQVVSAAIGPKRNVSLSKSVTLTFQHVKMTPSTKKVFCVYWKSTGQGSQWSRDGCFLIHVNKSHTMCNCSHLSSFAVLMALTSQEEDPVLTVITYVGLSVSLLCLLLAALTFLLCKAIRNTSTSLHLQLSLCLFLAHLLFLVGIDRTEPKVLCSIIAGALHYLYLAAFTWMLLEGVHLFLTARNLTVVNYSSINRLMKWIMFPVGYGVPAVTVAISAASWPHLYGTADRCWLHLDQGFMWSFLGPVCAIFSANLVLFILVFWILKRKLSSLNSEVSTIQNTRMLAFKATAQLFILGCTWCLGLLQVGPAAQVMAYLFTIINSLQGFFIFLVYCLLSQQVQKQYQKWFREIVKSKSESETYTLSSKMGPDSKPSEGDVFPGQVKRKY

T3: ADGRE1 (human, UniProt Q14246 21-886)
T3 construct: whole, on cells
T3 sequence (looked up): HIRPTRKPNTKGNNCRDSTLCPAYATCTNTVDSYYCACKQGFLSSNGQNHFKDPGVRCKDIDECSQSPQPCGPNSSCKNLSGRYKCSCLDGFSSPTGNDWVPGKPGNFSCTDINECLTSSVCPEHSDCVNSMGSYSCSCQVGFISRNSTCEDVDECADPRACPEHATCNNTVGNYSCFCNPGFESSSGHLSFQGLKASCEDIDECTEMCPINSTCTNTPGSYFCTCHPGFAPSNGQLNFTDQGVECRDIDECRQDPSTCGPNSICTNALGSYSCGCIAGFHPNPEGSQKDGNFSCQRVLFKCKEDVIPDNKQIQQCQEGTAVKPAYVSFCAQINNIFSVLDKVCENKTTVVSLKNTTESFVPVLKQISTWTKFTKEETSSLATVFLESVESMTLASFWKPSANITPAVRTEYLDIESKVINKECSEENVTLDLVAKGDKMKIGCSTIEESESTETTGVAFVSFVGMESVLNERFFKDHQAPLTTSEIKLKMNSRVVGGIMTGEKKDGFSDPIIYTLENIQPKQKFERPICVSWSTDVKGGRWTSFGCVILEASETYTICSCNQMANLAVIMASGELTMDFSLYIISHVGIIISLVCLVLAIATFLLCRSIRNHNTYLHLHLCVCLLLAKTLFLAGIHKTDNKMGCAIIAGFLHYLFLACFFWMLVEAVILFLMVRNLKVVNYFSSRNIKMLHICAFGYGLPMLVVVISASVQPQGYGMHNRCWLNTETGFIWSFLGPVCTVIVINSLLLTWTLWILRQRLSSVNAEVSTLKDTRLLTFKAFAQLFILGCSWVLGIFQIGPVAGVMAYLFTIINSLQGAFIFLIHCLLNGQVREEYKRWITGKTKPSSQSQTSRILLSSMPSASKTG

T4: ADGRE5 (human, UniProt P48960 21-835)
T4 construct: whole, on cells
T4 sequence (looked up): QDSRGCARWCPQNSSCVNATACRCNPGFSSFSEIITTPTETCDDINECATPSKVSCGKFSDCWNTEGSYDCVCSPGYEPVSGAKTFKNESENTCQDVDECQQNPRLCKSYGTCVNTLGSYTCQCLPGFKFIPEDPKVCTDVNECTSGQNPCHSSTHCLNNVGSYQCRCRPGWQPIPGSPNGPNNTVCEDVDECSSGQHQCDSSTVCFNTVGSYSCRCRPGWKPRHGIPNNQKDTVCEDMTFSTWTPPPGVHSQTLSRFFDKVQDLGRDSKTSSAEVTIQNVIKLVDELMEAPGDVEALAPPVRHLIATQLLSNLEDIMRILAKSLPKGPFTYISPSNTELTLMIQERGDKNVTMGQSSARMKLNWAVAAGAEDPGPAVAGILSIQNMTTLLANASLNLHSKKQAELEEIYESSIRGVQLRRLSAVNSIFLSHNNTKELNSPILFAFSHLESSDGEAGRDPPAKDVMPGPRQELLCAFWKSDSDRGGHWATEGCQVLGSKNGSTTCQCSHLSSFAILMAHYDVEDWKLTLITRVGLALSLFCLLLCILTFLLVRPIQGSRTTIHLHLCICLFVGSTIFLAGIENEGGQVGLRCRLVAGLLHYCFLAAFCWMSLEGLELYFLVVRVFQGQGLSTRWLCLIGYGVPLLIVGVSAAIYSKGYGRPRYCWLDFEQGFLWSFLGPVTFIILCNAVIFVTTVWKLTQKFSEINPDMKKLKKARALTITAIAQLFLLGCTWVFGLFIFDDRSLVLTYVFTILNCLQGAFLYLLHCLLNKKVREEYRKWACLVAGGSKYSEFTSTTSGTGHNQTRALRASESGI

B1: ADGRE2-D scFv (scFv)
scFv: QVQLQQSGAEVKKPGASVKVSCKASGYTFTNYWMQWVRQAPGQGLEWMGAVYPGDGDTRHTQKFKGRVTMTRDTSTSTVYMELSSLRSEDTAVYYCARGFTAYGMDYWGQGTLVTVSSASTGGGGSGGGGSGGGGSEIVLTQSPATLSLSPGERATLSCSASSSVSYMHWYQQKPGLAPRLLIYDTSKLASGIPDRFSGSGSGTDFTLTISRLEPEDFAVYYCQQWSSNPLTFGQGTKVEIK
notes: Recombinant humanized scFv; Any tag is not described
B2: ADGRE2-C scFv (scFv)
scFv: QVQLQQSGAEVKKPGASVKLSCKASGYTFTNYWMQWVRQAPGQGLEWIGAVYPGDGDTRYTQKFQGRATLTADTSTSTVYMEVSSLRSEDTAVYYCARGFTAYGMDYWGQGTTVTVSSGGGGSGGGGSGGGGSEIVLTQSPATMSASPGERVTMSCSASSSVSYMHWYQQKSGLSPKRWIYDTSKLASGVPDRFSGSGSGTDYTFTISRMEPEDFATYYCQQWSSNPLTFGGGTKLEIK
notes: as for B1
B3: ADGRE2 scFv-Fc (purified recombinant ADGRE2-A scFv fused to Fc) (Fc fusion)
chain: QVQLQQSGAEVAKPGASVKLSCKASGYTFTNYWMQWIKQAPGQGLEWIGAVYPGDGDTRHTQKFKGKATLTADKSTSTAYMEVSSLRSEDTAVYYCARGFTAYGMDYWGQGTTVTVSSGGGGSGGGGSGGGGSEIVLTQSPATMSASPGERVTMSCSASSSVSYMHWYQQKSGQSPKRWIYDTSKLASGVPARFSGSGSGTDYTFTISSMEPEDFATYYCQQWSSNPLTFGGGTKLEIK
notes: also called ADGRE2 scFv (ADGRE2-A); not shown: Fc part (and any linker) of the scFv-Fc is not described
B4: ADGRE2-A scFv (scFv)
scFv: B3 chain
notes: as for B1
B5: ADGRE2-B scFv (scFv)
scFv: B2 scFv with V37I, T76I, V79A, S85R, E89D
notes: as for B1
B6: ADGRE2-F scFv (scFv)
scFv: B2 scFv with V37I, V79A, M144L, S172P, S175A, K177R
notes: as for B1
B7: ADGRE2-E scFv (scFv)
scFv: QVQLQQSGAEVKKPGASVKVSCKASGYTFTNYWMQWVRQAPGQGLEWIGAVYPGDGDTRHTQKFKGRVTMTADKSTSTVYMELSSLRSEDTAVYYCARGFTAYGMDYWGQGTLVTVSSASTGGGGSGGGGSGGGGSQIVLTQSPATLSLSPGERATLTCSASSSVSYMHWYQQKPGLSPKRWIYDTSKLASGVPDRFSGSGSGTDYTFTIRRLEPEDFATYYCQQWSSNPLTFGQGTKVEIK
notes: as for B1

Tests used:
[1] = molecular target: T1, human Adhesion G protein-coupled …; assay: flow cytometry, scFv titration on EL4 cells overexpressing ADGRE2
Description: This example illustrates the on-cell binding for the anti-ADGRE2 scFvs as measured by flow cytometry. The on-cell binding for the anti-ADGRE2 scFvs was assessed by flow cytometry on the E4 cells overexpressing ADGRE2. Each of the scFvs were tested for binding to ADGRE2 and compared to the Reference 1 mAb. Briefly, 100,000 cells per well, were plated in 96 well V bottom plate, scFvs were diluted to 200 nMscFv then 1:4 serially down to 0.01 nM. A dose dependent titration of the scFvs validated recombinant scFvs folding and binding to ADGRE2. EC₅₀ affinities were compared in order to better interpret any differences seen in-vivo that might be caused by variations in affinities resulting from the humanization process Data was analyzed using Prism software, using a four parameter regression. The approximate EC₅₀ values were determined using equation: Y=Bottom+(Top−Bottom)/(1+10\hat{ }((Log EC₅₀−X)*HillSlope)) where the fitted parameters are defined as follows: Bottom, the lower plateau describing minimum binding achievable; Top, the upper plateau describing the maximum binding achievable; Log EC50, the inflection point of the dose response curve also known as the concentration producing a half-maximal response; and Hill-Slope, the slope of the dose response curve.

ADGRE3 = molecular target: T2, ADGRE3; assay: cell microarray screen on HEK293 cells overexpressing human membrane proteins
Description: (§1) The off-target binding interactions of ADGRE2 scFv (ADGRE2-A) and CLEC12A scFv (CLEC12A-A) to human plasma membrane proteins were carried out in a 4-phase approach: (1) pre-screening to determine the optimal concentrations of purified recombinant ADGRE2 scFv-Fc and CLEC12A scFv-Fc test proteins for the screening; (2) screening for binding of the test proteins against fixed HEK293 cells overexpressing 5,474 full-length human plasma membrane proteins and cell surface tethered human secreted proteins and 371 human cell surface heterodimers, which identified library hits; (3) confirmatory/specific screens using fixed-cell and live-cell microarrays; (4) flow cytometry-based follow-on study to investigate further identified test protein-specific interactions on live cells; and (5) cell-to-cell binding assays to confirm positive hits. The table below summarizes the off-binding data for ADGRE2 scFv and CLEC12A scFv.

ADGRE1 = molecular target: T3, ADGRE1; assay: as above
Description: as §1

ADGRE5 = molecular target: T4, ADGRE5; assay: as above
Description: as §1

Binder | EC50 [1] [nM] | further results
B1 | 16.4 | –
B2 | 53.2 | –
B3 | – | binding result (ADGRE3): no binding; binding result (ADGRE1): no binding; binding result (ADGRE5): no binding
B4 | 93.8 | –
B5 | 55.3 | –
B6 | 16.4 | –
B7 | 10.6 | –
